For test [1], the target named is Lag3 on cynomolgus PBMC/T cells (cynomolgus). Briefly: flow cytometry, non-activated cynomolgus PBMC, 10 µg/ml. (A flow cytometer gives signals particle by particle.)
For test [2] the target is unchanged. Briefly: flow cytometry, CD3/CD28-activated cynomolgus PBMC, 10 µg/ml.
The target in test [3] is cynomolgus LAG3 on transiently transfected HEK293F cells (cynomolgus). As to the kind of experiment: flow cytometry on HEK293F cells transfected with cyno LAG3, 10 µg/ml.
The target in test [4] is Lag3 on Lag3+ NFAT Jurkat effector cells (Promega #CS194801). Briefly: cell-based or functional assay.

Sequence of control antibody MDX25F7 (VH): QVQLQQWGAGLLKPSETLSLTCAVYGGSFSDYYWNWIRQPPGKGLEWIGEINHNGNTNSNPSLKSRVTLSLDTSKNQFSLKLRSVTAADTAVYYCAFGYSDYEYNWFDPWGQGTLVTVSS
Sequence of control antibody MDX25F7 (VL): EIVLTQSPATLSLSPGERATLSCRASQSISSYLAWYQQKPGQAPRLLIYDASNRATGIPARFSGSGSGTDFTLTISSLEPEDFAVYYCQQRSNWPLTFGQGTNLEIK

On to BMS-986016 (antibody), for which the Percentage of Lag3 positive cells in test [1] amounted to 10.1%; in test [2], 18.6%.

On to control antibody MDX25F7, for which the Percentage of Lag3 positive cells in test [1] was 11.3%. In test [2], this substance registered a Percentage of Lag3 positive cells of 22.1%. Further, in test [3], the LAG3 positive cells (%) was determined as 48.2% and the Signal intensity (Geo Mean) worked out at 1560 Geo Mean. In test [4], the EC50 of restoration of the NFAT luciferase signal (NFAT Lag3 reporter assay: Lag3+ Jurkat, Raji cells, SED) was found to be 1.29 µg/mL and the IC50 for near-complete reduction of luciferase activity (modified NFAT Lag3 reporter assay, Lag3+ Jurkat cells alone) turned out to be 0.033 µg/mL.

As to DP47 (human isotype control) (antibody), the values for the Percentage of Lag3 positive cells in test [1] and in test [2] were 2.5% and 9.19%, respectively.

(Values after patent publication US20200354457A1.)
